These are literature values, as cited in PMC5694535.

Series [1] addresses Clathrin heavy chain TD (UniProt P11442).
Series [2] has the same target. This is another data set of the same source.
Series [3] has as its target AP2 beta2 appendage (UniProt P63010).
The target is the same in series [4]. The series can be described thus: ITC.

Where two headings read alike, the source gives them in different places.

Sequence of UniProt P63010 (P63010 701-937): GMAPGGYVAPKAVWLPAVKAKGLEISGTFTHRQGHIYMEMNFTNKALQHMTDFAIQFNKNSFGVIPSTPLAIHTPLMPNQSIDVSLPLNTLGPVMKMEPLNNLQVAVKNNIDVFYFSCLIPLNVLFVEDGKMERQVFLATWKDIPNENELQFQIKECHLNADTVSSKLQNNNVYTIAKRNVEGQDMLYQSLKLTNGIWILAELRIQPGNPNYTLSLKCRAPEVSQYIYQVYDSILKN
Sequence of UniProt P11442 (P11442 1-363): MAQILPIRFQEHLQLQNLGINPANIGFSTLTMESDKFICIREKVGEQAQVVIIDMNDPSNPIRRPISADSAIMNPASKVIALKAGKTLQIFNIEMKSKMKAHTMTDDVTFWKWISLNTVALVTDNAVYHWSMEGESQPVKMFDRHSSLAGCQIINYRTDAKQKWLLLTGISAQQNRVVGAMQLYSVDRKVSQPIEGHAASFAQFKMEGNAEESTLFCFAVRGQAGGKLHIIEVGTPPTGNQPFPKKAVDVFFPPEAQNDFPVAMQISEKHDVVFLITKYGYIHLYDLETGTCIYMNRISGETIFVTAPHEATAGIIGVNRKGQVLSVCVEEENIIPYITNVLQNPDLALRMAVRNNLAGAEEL

In the case of “AP180 DLL/DLF motifs (from UniProt Q05140)”, the Kd with Clathrin heavy chain TD [1] is 200 µM. For AP180 peptide (from UniProt Q05140), in the series with Clathrin heavy chain TD [2], the Kd is 850 µM.

In the case of ARH peptide (from UniProt Q5SW96), the Kd with AP2 beta2 appendage [3] is 2.4 µM. For beta-arrestin, the Kd in the series with AP2 beta2 appendage [4] is 2.6 µM.
